The values below come from PMC10206564.

The target in this data set is His954 (UniProt position 954, […]). In words: NMR. The following applies: 30 mM NaCl plus 20 mM sodium phosphate, Folded post-fusion six-helix bundle (6HB) state, 0.15 mM protein, no lipid.

For the substance “Spike glycoprotein S2 HR1-HR2 fusion core ('Core') Q954H variant (Severe acute respiratory syndrome coronavirus 2 (SARS-CoV-2); Q954H)”, the pKa (as a rule, the pH at which an ionisable group is half protonated) was found to be 6.40.
